Experiments:
[1] = molecular target: T1, mouse PD-L1-Fc (SinoBiological) (mouse, UniProt Q9EP73 19-238, limits assumed); experiment: ELISA, mouse PD-L1-Fc coated
T1 construct: Bought reagent; also called soluble mPD-L1; not shown: Fc
Method: (§1) hPD-L1-hIGg1Fc (SinoBiological) or mouse PD-L1-Fc (SinoBiological) (100 ng/well) was coated in 96-well plates, and incubated overnight at 4° C. […] After being washed with PBST containing 2% skimmed milk powder for 4-5 times, anti-human kappa light chain-HRP (Sigma A7146, 1:3000) secondary antibody was added and incubated at room temperature for 1 h, and then washed with PBST containing 2% skimmed milk powder for 4-5 times. Colordevelopment was performed by QuantaBlu fluorescent peroxidase substrate (Life technologies, Cat.15169) and read at 325 nm and 420 nm, or by TMB color reagent (BioLegend, Cat. 421101) and read at 650 nm (unterminated) or 450 nm (terminated). Data was analyzed by nonlinear regression using specific binding model with Prizm Graphpad software.

[2] = molecular target: T2, hPD-L1-hIGg1Fc (SinoBiological) (human, UniProt Q9NZQ7 19-238); experiment: ELISA, hPD-L1-hIgG1Fc coated
T2 construct: Bought reagent; also called soluble hPD-L1; human PD-L1; not shown: human IgG1 Fc
Method: as §1

[3] = molecular target: T3, hPD-L1 on the cell surface (CHO-hPD-L1 cells; A431 cells) (human, UniProt Q9NZQ7 19-290); experiment: flow cytometry on CHO-hPD-L1 cells (hEGFR- hPDL1+)
T3 construct: whole, on cells; also called CHO-PD-L1
Method: (§2) A431, MC38-hEGFR, CHO-PD-L1, HepG2, and Hepa1-6 cells (DMEM medium containing 10% FBS, 1% double antibody) were cultured. After trypsinization, 2*10⁵ cells were taken and washed with pre-cooled PBS for 3 times. After blocked with PBS containing 2% FBS at 4° C., supernatant was discarded by centrifugation, 100 µL of the antibody fusion proteins with different concentrations diluted by the PBS solution containing 2% FBS were added and incubated at 4° C. for 1 h. The unbound antibody fusion protein was washed off with PBS containing 2% FBS, and secondary antibody Mouse Anti-Human IgG Fc-APC (Southern biotech) was added and incubated at 4° C. for 1 h. After being washed with PBS containing 2% FBS for three times, the fluorescence intensity was detected by flow cytometry.

[4] = molecular target: T1, mouse PD-L1-Fc (SinoBiological); experiment: ELISA, mouse PD-L1-Fc coated; weaker than the PD-1m fusion
Method: as §1

[5] = molecular target: T2, hPD-L1-hIGg1Fc (SinoBiological); experiment: ELISA, hPD-L1-hIgG1Fc coated; weaker than the PD-1m fusion
Method: as §1

[6] = molecular target: T4, mPDL1 on the surface of Hepa1-6 cells (mouse, UniProt Q9EP73 19-290); experiment: flow cytometry on Hepa1-6 cells (hGPC3- mPDL1+)
T4 construct: whole, on cells; also called mouse PD-L1
Method: as §2

[7] = molecular target: T3, hPD-L1 on the cell surface (CHO-hPD-L1 …); experiment: flow cytometry on A431 cells (hGPC3- hPDL1+)
Method: as §2

T1 sequence (Q9EP73 19-238 limits assumed): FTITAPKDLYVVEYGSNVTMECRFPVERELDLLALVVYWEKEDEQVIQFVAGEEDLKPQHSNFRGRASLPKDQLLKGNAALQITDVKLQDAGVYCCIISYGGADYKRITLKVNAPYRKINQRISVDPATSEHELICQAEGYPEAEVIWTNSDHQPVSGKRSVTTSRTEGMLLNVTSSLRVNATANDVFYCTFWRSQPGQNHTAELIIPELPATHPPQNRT
T2 sequence (Q9NZQ7 19-238 limits assumed): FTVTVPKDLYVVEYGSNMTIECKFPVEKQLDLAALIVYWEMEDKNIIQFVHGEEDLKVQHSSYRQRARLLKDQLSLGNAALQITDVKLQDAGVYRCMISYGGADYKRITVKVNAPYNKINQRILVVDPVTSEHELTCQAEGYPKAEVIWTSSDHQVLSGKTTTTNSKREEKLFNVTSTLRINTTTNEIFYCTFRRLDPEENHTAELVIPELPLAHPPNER
T3 sequence (Q9NZQ7 19-290): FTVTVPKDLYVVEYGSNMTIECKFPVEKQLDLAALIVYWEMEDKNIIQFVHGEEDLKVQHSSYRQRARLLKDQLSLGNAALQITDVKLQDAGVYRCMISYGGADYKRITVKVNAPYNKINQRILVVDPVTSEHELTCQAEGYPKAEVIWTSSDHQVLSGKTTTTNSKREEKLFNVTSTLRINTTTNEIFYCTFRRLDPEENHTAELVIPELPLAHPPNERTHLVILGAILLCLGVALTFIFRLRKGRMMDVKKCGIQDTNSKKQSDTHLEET
T4 sequence (Q9EP73 19-290): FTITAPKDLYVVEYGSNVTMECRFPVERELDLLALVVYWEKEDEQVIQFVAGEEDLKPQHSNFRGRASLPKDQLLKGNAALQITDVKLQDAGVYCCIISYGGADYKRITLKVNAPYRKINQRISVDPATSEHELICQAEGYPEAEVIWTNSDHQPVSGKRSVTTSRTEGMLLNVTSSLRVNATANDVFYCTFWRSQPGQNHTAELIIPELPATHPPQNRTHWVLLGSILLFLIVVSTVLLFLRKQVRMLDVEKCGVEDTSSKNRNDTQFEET

binding result [1] | binding result [2] | binding result [3] | binding result [4] | binding result [5] | binding result [6] | binding result [7] | Binder
binds | binds | binds | – | – | – | – | PD-1m-aEGFRL (bispecific antibody, human IgG1, kappa) heavy: QVQLQESGPGLVKPSETLSLTCTVSGGSVSSGDYYWTWIRQSPGKGLEWIGHIYYSGNTNYNPSLKSRLTISIDTSKTQFSLKLSSVTAADTAIYYCVRDRVTGAFDIWGQGTMVTVSSASTKGPSVFPLAPSSKSTSGGTAALGCLVKDYFPEPVTVSWNSGALTSGVHTFPAVLQSSGLYSLSSVVTVPSSSLGTQTYICNVNHKPSNTKVDKKVEPKSCDKTHTCPPCPAPPVAGPSVFLFPPKPKDTLMISRTPEVTCVVVDVSHEDPEVKFNWYVDGVEVHNAKTKPREEQYNSTYRVVSVLTVLHQDWLNGKEYKCKVSNKGLPSSIEKTISKAKGQPREPQVYTLPPSRDELTKNQVSLTCLVKGFYPSDIAVEWESNGQPENNYKTTPPVLDSDGSFFLYSKLTVDKSRWQQGNVFSCSVMHEALHNHYTQKSLSLSPGK light: not shown
– | – | – | binds | binds | – | – | PD-1-aEGFRL (bispecific antibody, Wild-type human PD-1 fused to the light chain of the anti-human EGFR antibody) heavy: QVQLQESGPGLVKPSETLSLTCTVSGGSVSSGDYYWTWIRQSPGKGLEWIGHIYYSGNTNYNPSLKSRLTISIDTSKTQFSLKLSSVTAADTAIYYCVRDRVTGAFDIWGQGTMVTVSSASTKGPSVFPLAPSSKSTSGGTAALGCLVKDYFPEPVTVSWNSGALTSGVHTFPAVLQSSGLYSLSSVVTVPSSSLGTQTYICNVNHKPSNTKVDKKVEPKSCDKTHTCPPCPAPPVAGPSVFLFPPKPKDTLMISRTPEVTCVVVDVSHEDPEVKFNWYVDGVEVHNAKTKPREEQYNSTYRVVSVLTVLHQDWLNGKEYKCKVSNKGLPSSIEKTISKAKGQPREPQVYTLPPSRDELTKNQVSLTCLVKGFYPSDIAVEWESNGQPENNYKTTPPVLDSDGSFFLYSKLTVDKSRWQQGNVFSCSVMHEALHNHYTQKSLSLSPGK light: not shown
binds | binds | – | – | – | binds | binds | PD-1m-aGPC-3L (bispecific antibody, human IgG1, kappa) heavy: QVQLVQSGAEVKKPGASVKVSCKASGYTFTDYEMHWVRQAPGQGLEWMGALDPKTGDTAYSQKFKGRVTLTADKSTSTAYMELSSLTSEDTAVYYCTRFYSYTYWGQGTLVTVSSASTKGPSVFPLAPSSKSTSGGTAALGCLVKDYFPEPVTVSWNSGALTSGVHTFPAVLQSSGLYSLSSVVTVPSSSLGTQTYICNVNHKPSNTKVDKKVEPKSCDKTHTCPPCPAPPVAGPSVFLFPPKPKDTLMISRTPEVTCVVVDVSHEDPEVKFNWYVDGVEVHNAKTKPREEQYNSTYRVVSVLTVLHQDWLNGKEYKCKVSNKGLPSSIEKTISKAKGQPREPQVYTLPPSRDELTKNQVSLTCLVKGFYPSDIAVEWESNGQPENNYKTTPPVLDSDGSFFLYSKLTVDKSRWQQGNVFSCSVMHEALHNHYTQKSLSLSPGK light: LDSPDRPWNPPTFSPALLVVTEGDNATFTCSFSNTSESFVLNWYRMSPSNQTDKLAAFPEDRSQPGQDSRFRVTQLPNGRDFHMSVVRARRNDSGTYLCGAISLAPKVQIKESLRAELRVTERRAEVPTAHPSPSPRPAGQFQGGGGSGGGGSGGGGSGDVVMTQSPLSLPVTPGEPASISCRSSQSLVHSNRNTYLHWYLQKPGQSPQLLIYKVSNRFSGVPDRFSGSGSGTDFTLKISRVEAEDVGVYYCSQNTHVPPTFGQGTKLEIKRTVAAPSVFIFPPSDEQLKSGTASVVCLLNNFYPREAKVQWKVDNALQSGNSQESVTEQDSKDSTYSLSSTLTLSKADYEKHKVYACEVTHQGLSSPVTKSFNRGEC

— patent US20230287081A1 (NANTONG YICHEN BIOPHARMA, published 2023)
